For data set [1], the target named is T1, cynomolgus monkey (Macaca fascicularis) FGF23 (R179Q) (cynomolgus monkey (Macaca fascicularis), UniProt Q9GZV9 25-251 (human entry), limits assumed).
T1 construct: also called cynoFGF23; cynoFGF23(R179Q)
T1 chain: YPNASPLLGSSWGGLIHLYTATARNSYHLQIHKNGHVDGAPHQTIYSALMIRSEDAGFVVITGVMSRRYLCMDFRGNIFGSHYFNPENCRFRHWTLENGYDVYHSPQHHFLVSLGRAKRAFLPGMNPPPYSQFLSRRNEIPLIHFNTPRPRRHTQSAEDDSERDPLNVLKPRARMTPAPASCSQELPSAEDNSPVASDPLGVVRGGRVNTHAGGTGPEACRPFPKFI
The data set can be described thus: SPR, antibody captured on hIgG chip, cynoFGF23(R179Q) analyte, single cycle kinetics. The protocol: Binding kinetics of 13 antibody variants shown in Table 19 were characterized against cynomolgus monkey (Macaca fascicularis) FGF23 (R179Q) (i.e., “cynoFGF23”) (SEQ ID NO: 372). Antibody variants were expressed at small scale (3 ml) and screened by SPR analysis at a single concentration (100 nM). Experimental setup of SPR analysis for CRC: SPR device—8K+; chip preparation—CM5 hIgG chip: channels—1-8; immobilization concentration—1.5 ug/ml; immobilization method—capture; flow rate—5 μl/min; contact time—60 s; running buffer—1×HBS-EP+pH 7.4; temperature—20° C.: flow rate—50 μl/min; association time—120 s; dissociation time—1800 s; antigen—cynoFGF23(R179Q): top concentration—0.1 μM, 9-pt 3-fold Single Cycle Kinetics.
Background: Surface plasmon resonance follows binding to a sensor surface in real time, without labels.

The target of data set [2] is T2, recombinant human FGF23 (R179Q) (human, UniProt Q9GZV9 25-251).
T2 construct: also called rhFGF23(R179Q); hFGF23(R179Q)
T2 sequence (looked up): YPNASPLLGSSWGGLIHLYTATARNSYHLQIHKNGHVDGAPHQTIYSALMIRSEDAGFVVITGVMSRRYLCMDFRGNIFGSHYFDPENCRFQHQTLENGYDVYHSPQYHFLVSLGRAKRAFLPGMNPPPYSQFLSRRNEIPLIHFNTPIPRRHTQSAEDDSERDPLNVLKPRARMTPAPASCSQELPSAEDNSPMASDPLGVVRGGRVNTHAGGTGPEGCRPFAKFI
As to the kind of experiment: SPR, antibody captured on hIgG chip, human FGF23 analyte.

Data set [3] concerns the target T2, recombinant human FGF23 (R179Q). The data set can be described thus: SPR, antibody captured on hIgG chip, rhFGF23(R179Q) analyte.
Data set [4] shares this target. The data set is described as above. This is another data set of the same source.
Data set [5] deals with the molecule itself. The data set can be described thus: X-ray crystal structure of the hFGF23(R179Q):burosumab Fab complex. The protocol:
To further characterize the human FGF23-burosumab interaction, x-ray crystallographic study was carried out using fully glycosylated human FGF23 (R179Q) from HEK293S cell supernatant in complex with burosumab Fab fragments also expressed in HEK293S cells. Burosumab IgG heavy and light chains were subjected to papain digestion to separate Fc and Fab fragments, then Protein A to isolate Fab fragments of approximately 50 kDa, according to routine methods (Pierce™ Fab Preparation Kit, Thermo Scientific™, cat #!44985). Fully glycosylated human FGF23 (R179Q) and burosumab Fab fragments were incubated on ice for more than one hour (1:0.8 molar ratio) and the stable complex was isolated by size exclusion chromatography (SEC) followed by evaluation by SDS-PAGE. SEC fractions containing the complex were pooled, concentrated, and stored at −80° C.
Diffraction data was collected from a single crystal at the Advanced Photon Source (APS) synchrotron and processed using autoPROC (autoProc, XDS, POINTLESS, AIMLESS, CCP4, and STARANISO) (see Vonrhein C, Flensburg C, Keller P, Sharff A, Smart O, Paciorek W, Womack T, Bricogne G. Data processing and analysis with the autoPROC toolbox. Acta Crystallogr D Biol Crystallogr. 2011 April; 67(Pt 4):293-302. [doi:10.1107/S0907444911007773]). […]

Where “and” joins values, the source holds several entries; their conditions need not be identical. Equal entries are not always repeated. Where two headings read alike, the source gives them in different places.

B1: UGX205 (antibody, human IgG1, kappa, V domains shown)
VH: QVQLVQSGAEVKKPGASVKVSCKASGYTFTNHYMHWVRQAPGQGLEWMGIINPISGSTENAQKFQGRVTMTRDTSTSTVYMELSSLRSEDTAVYYCARDIVDAFDFWGQGTMVTVSS
VL: AIQLTQSPSSLSASVGDRVTITCRASQGISSALVWYQQKPGKAPKLLIYDASSLESGVPSRFSGSGSGTDFTLTISSLQPEDFATYYCQQFNDDFTFGPGTKVDIKR
notes: also called HC:S59E, LC:Y94D; S59E/Y94D
As to B1, in data set [1], the “KD ratio (variant antibody KD/burosumab KD)” value (“KD ratio” below) stood at 9 and the dissociation constant (Kd) (in general, the free concentration of one partner at which half of the binding sites on the other are occupied at equilibrium, for simple one-to-one binding) came out at 2.57 pM. For the same molecule, in data set [2], the “KD ratio” value was found to be 5 and the Kd came to 4.07 pM. Further, in data set [3], the Kd came to 4.07 pM; the “Ratio (variant antibody KD/burosumab KD)” value was 5; the “SA (surface activity)” value was 93.9%; the koff (in general, the first-order rate constant of dissociation) stood at 6.25e-05 s⁻¹. In addition, the kon (as a rule, the rate constant with which the complex forms) in data set [3] turned out to be 1.53e+07 M⁻¹ s⁻¹. In data set [4], the dissociation constant Kd was determined as 4.07 pM, the “Ratio (variant antibody KD/burosumab KD)” value was determined as 5, the “SA (surface activity)” value was 93.9% and the koff is 6.25e-05 s⁻¹. Besides, the kon in data set [4] is 1.53e+07 M⁻¹ s⁻¹.

B2: UGX144 (antibody, human IgG1, kappa, V domains shown)
VH: QVQLVQSGAEVKKPGASVKVSCKASGYTFTNHYMHWVRQAPGQGLEWMGIINPISGSTSNAQKFQGRVTMTRDTSTSTVYMELSSLRSEDTAVYYCARDIVDAFDFWGQGTMVTVSS
VL: AIQLTQSPSSLSASVGDRVTITCRASQGISSALVWYQQKPGKAPKLLIYDASSLESGVPSRFSGSGSGTDFTLTISSLQPEDFATYYCQQFNDDFTFGPGTKVDIKR
notes: also called LC:Y94D; Y94D
In the case of B2, in data set [1], the “KD ratio” value was 3 and the affinity, expressed as Kd, was 6.86 pM. Besides, in data set [2], the “KD ratio” value is 4 and the Kd was determined as 5.77 pM. For the same molecule, in data set [3], the Kd was 6.58 pM and 5.77 pM; the koff is 7.03e-05 s⁻¹ and 6.31e-05 s⁻¹; the association rate constant (kon) was 1.07e+07 M⁻¹ s⁻¹ and 1.09e+07 M⁻¹ s⁻¹. For the same molecule, in data set [4], the Kd was found to be 5.77 pM, the “Ratio (variant antibody KD/burosumab KD)” value stood at 4, the “SA (surface activity)” value came to 89.5% and the off-rate constant (koff) turned out to be 6.31e-05 s⁻¹. Further, the kon in data set [4] was determined as 1.09e+07 M⁻¹ s⁻¹.

B3: UGX206 (antibody, human IgG1, kappa, V domains shown)
VH: QVQLVQSGAEVKKPGASVKVSCKASGYTFTNHYMHWVRQAPGQGLEWMGIINPISGSTENAQKFQGRVTMTRDTSTSTVYMELSSLRSEDTAVYYCARDIVDAFDFWGQGTMVTVSS
VL: AIQLTQSPSSLSASVGDRVTITCRASQGISSALVWYQQKPGKAPKLLIYDASSLESGVPSRFSGSGSGTDFTLTISSLQPEDFATYYCQQFNDEFTFGPGTKVDIKR
notes: also called HC:S59E, LC:Y94E; S59E/Y94E
In the case of B3, in data set [1], the “KD ratio” value was found to be 3 and the Kd amounted to 7.16 pM. For the same molecule, in data set [2], the “KD ratio” value is 3 and the Kd was 7.87 pM. For the same molecule, in data set [3], the Kd is 6.62 pM and 7.87 pM and 10.9 pM; the koff was 5.72e-05 s⁻¹ and 4.92e-05 s⁻¹ and 8.37e-05 s⁻¹; the kon is 8.64e+06 M⁻¹ s⁻¹ and 6.25e+06 M⁻¹ s⁻¹ and 7.69e+06 M⁻¹ s⁻¹. Also, in data set [4], the Kd amounted to 7.87 pM, the “Ratio (variant antibody KD/burosumab KD)” value is 3, the “SA (surface activity)” value came to 108% and the koff came to 4.92e-05 s⁻¹. In data set [4], the kon was 6.25e+06 M⁻¹ s⁻¹.

B4: human FGF23 (R179Q) (ligand, UniProt Q9GZV9 25-251, looked up)
chain: YPNASPLLGSSWGGLIHLYTATARNSYHLQIHKNGHVDGAPHQTIYSALMIRSEDAGFVVITGVMSRRYLCMDFRGNIFGSHYFDPENCRFQHQTLENGYDVYHSPQYHFLVSLGRAKRAFLPGMNPPPYSQFLSRRNEIPLIHFNTPIPRRHTQSAEDDSERDPLNVLKPRARMTPAPASCSQELPSAEDNSPMASDPLGVVRGGRVNTHAGGTGPEGCRPFAKFI
modifications: fully glycosylated (from HEK293S cells)
notes: also called hFGF23(R179Q); rhFGF23(R179Q)
As for B4, the binding result in data set [5] was “binds”.

The values are drawn from patent US20260250371A1 (ULTRAGENYX PHARMACEUTICAL, published 2026).
